The text below walks through data of patent publication US20170320956A1 (KYMAB, published 2017).

Assay [1] deals with T1, recombinant human LIGHT-214E, FLAG-tagged extracellular domain (human).
T1 chain: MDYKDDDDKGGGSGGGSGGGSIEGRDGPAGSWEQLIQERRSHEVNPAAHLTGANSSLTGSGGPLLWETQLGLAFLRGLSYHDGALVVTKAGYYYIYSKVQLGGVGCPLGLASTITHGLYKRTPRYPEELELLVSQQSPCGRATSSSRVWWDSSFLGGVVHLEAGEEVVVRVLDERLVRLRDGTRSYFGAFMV
Nature of the assay: cell-based or functional assay.

The target of assay [2] is T2, mouse LIGHT (mouse, UniProt Q9QYH9 72-239, limits assumed).
T2 construct: also called murine LIGHT
T2 sequence (looked up): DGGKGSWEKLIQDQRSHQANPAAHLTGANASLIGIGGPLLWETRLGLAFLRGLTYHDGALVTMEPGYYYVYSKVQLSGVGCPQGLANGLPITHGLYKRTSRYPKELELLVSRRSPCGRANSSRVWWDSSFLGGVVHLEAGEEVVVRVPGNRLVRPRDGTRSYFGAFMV
As to the kind of experiment: SPR ProteOn, mAb captured on anti-mouse IgG.

Assay [3] deals with human LIGHT-214E, full length, expressed on the surface of CHO-S cells (human, UniProt O43557 1-240). Nature of the assay: flow cytometry, CHO-S cells expressing hLIGHT-214E. (A flow cytometer gives signals particle by particle.)
Assay [4] concerns the target T1, recombinant human LIGHT-214E, …. Nature of the assay: HTRF competition, HVEM-Fc binding to Flag-hLIGHT-214E. On the procedure: (§1) The following methods were carried out with a titration of inhibitor in order to establish the clone potency as measured by IC50 values in the assay. 5 μl of Flag-tagged hLIGHT (in-house) diluted to 2.5 nM final concentration (10 nM working concentration) in HTRF buffer with 5 μl of a titration of antibody purified from hybridoma supernatant diluted in HTRF assay buffer from 300 nM final (1200 nM working concentration) was pre-incubated for 1 hour at room temperature. To wells used to define total binding, 5 μl of LIGHT (10 nM working, 2.5 nM final) and 5 μl of hybridoma maintaining media (HMM,)) were added. To wells used to define non specific binding (receptor only) 10 μl of HMM was added. Total and non specific binding wells were pre-incubated for 1 hr at RT in the same plate as wells containing titration of inhibitor.
(§2) LIGHT receptor was diluted in HTRF assay buffer and added to all wells, 5 μl/well of HVEM-Fc or LTβR-Fc (R&D systems) at 1.2 nM for HVEM (0.3 nM final) and 0.4 nM for LTβR (0.1 nM final).
A general note: TR-FRET usually uses a lanthanide donor and a delayed reading to cut background.

For assay [5] the target is unchanged. As to the kind of experiment: HTRF competition, LTβR-Fc binding to Flag-hLIGHT-214E. On the procedure:
as §1, §2

In assay [6] the target is T3, recombinant human LIGHT-214K, FLAG-tagged extracellular domain (human).
T3 construct: the IgK leader peptide is marked only by underlining (not visible here), so its residues were not removed; Trimer
T3 chain: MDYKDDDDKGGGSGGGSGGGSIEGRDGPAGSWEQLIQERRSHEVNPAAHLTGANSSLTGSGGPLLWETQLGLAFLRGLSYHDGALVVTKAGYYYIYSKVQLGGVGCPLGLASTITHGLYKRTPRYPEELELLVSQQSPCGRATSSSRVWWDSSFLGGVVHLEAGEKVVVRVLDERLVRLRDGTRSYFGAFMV
As to the kind of experiment: SPR ProteOn, mAb captured on anti-mouse IgG, LIGHT 256 nM, 25 C. On the procedure: (§3) SPR analysis was carried out using the ProteOn™ XPR36 Array System (BioRad). Anti-mouse IgG (GE Healthcare BR-1008-38) was immobilised on a GLC biosensor surface using amine coupling, the surface was then blocked using 1M ethanolamine. […] Apparent affinities for the LIGHT-antibody interaction were determined using the 1:1 model inherent to the ProteOn XPR36 analysis software. The assay was run using HBS-EP (Teknova) as running buffer and carried out at 25° C.

The target of assay [7] is T1, recombinant human LIGHT-214E, …. Nature of the assay: SPR ProteOn, mAb captured on anti-mouse IgG, LIGHT 256 nM, 25 C, apparent affinity. On the procedure: as §3
The target of assay [8] is T4, recombinant cynomolgus monkey LIGHT, FLAG-tagged extracellular domain (cynomolgus (Macaca fascicularis), UniProt E9NVF7 59-240).
T4 construct: extracellular domain; also called cynomolgus LIGHT; cyno LIGHT
The description is as above. On the procedure: as §3

In assay [9] the target is T3, recombinant human LIGHT-214K, …. As to the kind of experiment: SPR cross-binding study, IgG4(PE) format; column hLIGHT 214K Binder. How it is done: All antibodies tested in the competition SPR were in human IgG4(PE) format (see Example 5 for re-formatting methods). To investigate antibodies that may share the same binding region on LIGHT, an SPR based assay was carried out on the ProteOn™ XPR36 Array System. […] The anti-human IgG surface was used as a capture surface to capture test antibodies as “ligands” for analysis. Using the ProteOn™ XPR36 Array System ability to address the capture surface in either the vertical or horizontal orientation the assay was carried out as follows. The “Ligand” antibodies were captured in the vertical orientation, and then a 1 in 1000 dilution of mouse serum was used to block the capture surface in the horizontal orientation. LIGHT was then passed over the capture surface in the horizontal orientation and bound to the captured ligand antibody, after which the same ligand antibody was passed over the “antibody-LIGHT” complex, (LIGHT is a trimer, so this ensures all available LIGHT molecules are bound to by the Ligand antibody), again the second application of the ligand antibody was in the vertical orientation. […] Binding/no-binding is determined by monitoring the sensorgrams, which were double referenced using a non-LIGHT binding antibody as a control sample and was included with every set of ligand antibodies run. […]

B1: 117C06 (purified from hybridoma supernatant) (antibody, V domains shown)
VH: QVQLVQSGAEVKKPGASVKVSCKASGYTFVNFGISWVRQAPGQGLEWMGWISVYSGNTNYAQKLQGRVTLTTDTSTTTAYMELRSLRSDDTAVYYCARHNWNDYWGQGTLVTVSS
VL: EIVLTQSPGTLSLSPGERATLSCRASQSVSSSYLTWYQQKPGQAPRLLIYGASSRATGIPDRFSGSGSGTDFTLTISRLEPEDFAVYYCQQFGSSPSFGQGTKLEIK
notes: Murine constant / human variable chimeric IgG, kappa, Protein G purified from hybridoma supernatant
Consider B1, for which the “HT29 IL-8 release, IC50” value in assay [1] was 1.42 nM. Also, the binding result in assay [2] was “no binding”; in [3], “binds”; in [6], “no binding (tested: 256 nM)”. Moreover, the IC50 (usually the concentration at which inhibition is half-maximal) in assay [4] was found to be 1.28 nM; in [5] it was 2.53 nM. The Kd in assay [7] was found to be 1.03 nM; in [8], 2.82 nM.

B2: 117C06 in human IgG4(PE) format (antibody, V domains shown)
VH: QVQLVQSGAEVKKPGASVKVSCKASGYTFVNFGISWVRQAPGQGLEWMGWISVYSGNTNYAQKLQGRVTLTTDTSTTTAYMELRSLRSDDTAVYYCARHNWNDYWGQGTLVTVSS
VL: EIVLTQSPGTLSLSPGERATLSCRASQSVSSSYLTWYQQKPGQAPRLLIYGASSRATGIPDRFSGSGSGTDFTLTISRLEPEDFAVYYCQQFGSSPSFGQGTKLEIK
Consider B2, for which the binding result in assay [9] is “no binding”.
